According to US20240115603A1 (Zymeworks, published 2024):
Substitutions are numbered along the chain they refer to.

T1: WT G-CSFR(Ig-CRH), purified, tag cleaved (human, UniProt Q99062 26-331)
T1 construct: also called G-CSFRWT; wild type G-CSFR ECD
T1 chain: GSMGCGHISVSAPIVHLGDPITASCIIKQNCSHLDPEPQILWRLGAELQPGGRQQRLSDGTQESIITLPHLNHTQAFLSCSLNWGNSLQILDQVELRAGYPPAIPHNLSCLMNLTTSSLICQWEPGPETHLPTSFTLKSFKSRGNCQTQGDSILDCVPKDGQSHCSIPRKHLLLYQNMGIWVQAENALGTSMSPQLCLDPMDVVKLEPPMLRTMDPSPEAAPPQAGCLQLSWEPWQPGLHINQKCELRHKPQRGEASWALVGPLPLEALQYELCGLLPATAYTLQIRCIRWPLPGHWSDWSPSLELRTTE

T2: G-CSFR(Ig-CRH)E design 9, purified, tag cleaved (human, UniProt Q99062 26-331)
T2 construct: SPR protein; also called Design 9 G-CSFR(Ig-CRH)E
T2 chain: T1 chain with R143E, R169D, K170D, Q176D

T3: G-CSFR(Ig-CRH)E design 35, purified, tag cleaved (human, UniProt Q99062 26-331)
T3 construct: SPR protein; also called Design #35 G-CSFR(Ig-CRH)E
T3 chain: T1 chain with R143E, L173E, Q176E

T4: WT G-CSF, purified, tag cleaved (human, UniProt P09919 31-206)
T4 construct: also called G-CSFWT
T4 sequence: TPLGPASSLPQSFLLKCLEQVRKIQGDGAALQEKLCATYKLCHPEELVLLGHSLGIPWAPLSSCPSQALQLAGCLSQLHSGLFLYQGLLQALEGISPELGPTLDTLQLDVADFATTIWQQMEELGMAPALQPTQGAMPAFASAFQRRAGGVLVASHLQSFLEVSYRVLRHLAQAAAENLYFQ

T5: G-CSFR(Ig-CRH)E design 30, purified, tag cleaved (human, UniProt Q99062 26-331)
T5 construct: also called Design 30 G-CSFR(Ig-CRH)E
T5 chain: T1 chain with R169D

T6: G-CSFR(Ig-CRH)E design 34, purified, tag cleaved (human, UniProt Q99062 26-331)
T6 construct: SPR protein; also called Design 34 G-CSFR(Ig-CRH)E
T6 chain: T1 chain with R143E, R169D

B1: G-CSFE design 9, purified, tag cleaved (ligand)
chain: T4 sequence with D104R, L108K, D112R, Q119R, E122K
notes: also called Design 9 G-CSFE
B2: G-CSFE design 35, purified, tag cleaved (ligand)
chain: T4 sequence with T115K, E122R, E123R
notes: also called Design 35 G-CSFE
B3: G-CSFR(Ig-CRH)E design 134 (R41E_R141E_R167D), purified, tag cleaved (receptor)
chain: T1 chain with R43E, R143E, R169D
notes: also called Design 134 G-CSFR(Ig-CRH)E; design 137 G-CSFR(Ig-CRH)E
B4: G-CSFR(Ig-CRH)E design 402, purified, tag cleaved (receptor)
chain: T1 chain with R43E, R169E, Q176E, R290E
notes: SPR protein; also called Design 402 G-CSFR(Ig-CRH)E
B5: G-CSFR(Ig-CRH)E design 300, purified, tag cleaved (receptor)
chain: T1 chain with F77K, Q93K, R169D
notes: SPR protein; also called Design 300 G-CSFR(Ig-CRH)E
B6: G-CSFR(Ig-CRH)E design 304, purified, tag cleaved (receptor)
chain: T1 chain with R43E, E95K, R169D
notes: SPR protein; also called Design 304 G-CSFR(Ig-CRH)E
B7: G-CSFR(Ig-CRH)E design 303, purified, tag cleaved (receptor)
chain: T1 chain with E95K, R169D
notes: SPR protein; also called Design 303 G-CSFR(Ig-CRH)E
B8: G-CSFE design 30, purified, tag cleaved (ligand)
chain: T4 sequence with L108K, D112R
notes: also called Design 30 G-CSFE
B9: G-CSFR(Ig-CRH)E design 401, purified, tag cleaved (receptor)
chain: T1 chain with R43E, R169D, R290D
notes: SPR protein; also called Design 401 G-CSFR(Ig-CRH)E
B10: G-CSFR(Ig-CRH)E design 307, purified, tag cleaved (receptor)
chain: T1 chain with R43E, D199K, D202K, R290E
notes: SPR protein; also called Design 307 G-CSFR(Ig-CRH)E
B11: G-CSFR(Ig-CRH)E design 130, purified, tag cleaved (receptor)
chain: T1 chain with R43E, R169D
notes: SPR protein; also called Design 130 G-CSFR(Ig-CRH)E
B12: G-CSFE design 117, purified, tag cleaved (ligand)
chain: T4 sequence with E46R, E122R, E123R
notes: also called Design 117 G-CSFE
B13: G-CSFE design 34, purified, tag cleaved (ligand)
chain: T4 sequence with L108K, D112R, E122R, E123R
notes: also called Design 34 G-CSFE
B14: G-CSFE design 134, purified, tag cleaved (ligand)
chain: T4 sequence with E46R, L108K, D112R, E122R, E123R
notes: also called Design #134 G-CSFE

Columns and labels:
[1] = target: T1, WT G-CSFR(Ig-CRH), purified, tag cleaved; test: SPR (Biacore T200), WT G-CSFR(Ig-CRH) amine-coupled, G-CSFE injected; KD relative to WT:WT control (larger = weaker)
[2] = target: T1, WT G-CSFR(Ig-CRH), purified, tag cleaved; test: SPR (Biacore T200)
[3] = target: T2, G-CSFR(Ig-CRH)E design 9, purified, tag …; test: SPR (Biacore T200), G-CSFR(Ig-CRH)E amine-coupled, G-CSFE injected; KD relative to WT:WT control (larger = weaker)
Protocol: (§1) The SPR binding assays were carried out on a Biacore T200 instrument (GE Healthcare, Mississauga, ON, Canada) with PBS-T (PBS+0.05% (v/v) Tween 20) running buffer at a temperature of 25° C. CMS Series S sensor chip, Biacore amine coupling kit (NHS, EDC and 1 M ethanolamine), and 10 mM sodium acetate buffers were all purchased from GE Healthcare. PBS running buffer with 0.05% Tween20 (PBS-T) was purchased from Teknova Inc. (Hollister, CA).
(§2) To determine binding affinity of G-CSFE to G-CSFRE the G-CSFRE mutant was captured by standard amine coupling as described by the manufacturer (GE LifeSciences). Briefly, immediately after EDC/NHS activation, a 5 μg/mL solution of G-CSFRE in 10 mM NaOAc, pH 5.0, was injected at a flow rate of 5 μL/min until a receptor density of ˜700-900 RU was reached. The remaining active groups were quenched by a 420 s injection of 1 M ethanolamine hydrochloride-NaOH pH 8.5 at 10 μL/min. Using single-cycle kinetics, six concentrations of a two-fold dilution series of the corresponding G-CSFE mutant starting at 200 nM with a blank buffer control were sequentially injected at 25 μL/min for 300s with a 1800s dissociation phase, resulting in a set of sensorgrams with a buffer blank reference. The same sample titration was also performed on a reference cell with no variants captured. The chip was regenerated to prepare for the next injection cycle by one pulse of 10 mM glycine/HCl, pH 2.0, for 30 s at 30 μL/min.
(§3) Double-referenced sensorgrams from duplicate or triplicate repeat injections were analyzed using Biacore™ T200 Evaluation Software v3.0 and fit to the 1:1 Langmuir binding model.

[4] = target: T3, G-CSFR(Ig-CRH)E design 35, purified, …; test: as above
Protocol: as §1, §2, §3

[5] = target: T4, WT G-CSF, purified, tag cleaved; test: SPR (Biacore T200)
[6] = target: T5, G-CSFR(Ig-CRH)E design 30, purified, …; test: SPR (Biacore T200), G-CSFR(Ig-CRH)E amine-coupled, G-CSFE injected; KD relative to WT:WT control (larger = weaker)
Protocol: as §1, §2, §3

[7] = target: T6, G-CSFR(Ig-CRH)E design 34, purified, …; test: as above
Protocol: as §1, §2, §3

[8] = target: B3; test: as above
Protocol: as §1, §2, §3

Binder | KD fold change (vs WT:WT) [1] | binding result [5] | also measured
B1 | 79 fold | – | fold weaker KD (vs WT:WT) [2]: ≥ 20 fold; KD fold change (vs WT:WT) [3]: 1.2 fold
B2 | 5 fold | – | KD fold change (vs WT:WT) [4]: 3.3 fold
B3 | – | no binding | –
B4 | – | no binding | –
B5 | – | no binding | –
B6 | – | no binding | –
B7 | – | no binding | –
B8 | 20 fold | – | fold weaker KD (vs WT:WT) [2]: ≥ 20 fold; KD fold change (vs WT:WT) [6]: 11 fold
B9 | – | no binding | –
B10 | – | no binding | –
B11 | – | no binding | –
B12 | 3.4 fold | – | –
B13 | 33 fold | – | fold weaker KD (vs WT:WT) [2]: ≥ 20 fold; KD fold change (vs WT:WT) [7]: 5 fold
B14 | 465 fold | – | fold weaker affinity (vs WT:WT) [2]: ~500 fold; KD fold change (vs WT:WT) [8]: 1 fold
